{"source": "paper PMC4014319", "about": "“Structure of catabolite activator protein with cobalt(II) and sulfate” (Acta Crystallographica. Section F, Structural Biology …, 2014)", "proteins": {"B1": {"name": "catabolite activator protein (CAP) (natural protein, Escherichia coli, UniProt P0ACJ8 1-210, looked up)", "chain": "MVLGKPQTDPTLEWFLSHCHIHKYPSKSTLIHQGEKAETLYYIVKGSVAVLIKDEEGKEMILSYLNQGDFIGELGLFEEGQERSAWVRAKTACEVAEISYKKFRQLIQVNPDILMRLSAQMARRLQVTSEKVGNLAFLDVTGRIAQTLLNLAKQPDAMTHPDGMQIKITRQEIGQIVGCSRETVGRILKMLEDQNLISAHGKTIVVYGTR", "notes": "crystallised with cobalt(II) and sulfate; also called cAMP–CAP"}}, "biological_target": "the molecule itself", "experiment": "crystal structure; hanging-drop vapor diffusion, 20°C, 0.01 M CoCl2.6H2O, 0.1 M MES pH 6.5, 2.5 M ammonium sulfate; sample 0.1 mM CAP dimer, 0.05 mM DNA duplex, 0.4 mM cyclic AMP (no DNA in the crystal); space group P2(1)2(1)2, one dimer in the asymmetric unit, 1.97 Å", "data": [{"protein": "B1", "values": [{"measurement": "binding result", "result": "binds"}]}]}
